According to the supplement of paper PMC7125110:
± gives the standard error. This sample holds only a part of the variants without activity.

B1: glmS ribozyme (parent)
chain: AUAAAAGCGCCAGAACUACAGAAAUGUAGUUGACGAGGAGGAGGUUUAUCGAAUUUUCGGCGGAUGCCUCCAAA

Variants of: B1
Assay: self-cleavage kobs at 2500 uM GlcN6P; higher = faster cleavage; RNA array
Settings: with glucosamine-6-phosphate
Method in brief: (§1)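 Ribozyme variants carrying barcodes were transcribed in situ on sequenced MiSeq chips by E. coli RNA polymerase and tracked at 37 °C with a hybridised Cy3 probe. They were exposed to 40 μM to 10 mM glucosamine-6-phosphate in HEPES/KCl/Mg(OAc)2 buffer. kobs came from exponential decay fits of normalised per-tile medians, and kcat and KM from weighted Michaelis–Menten fits.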

Row | Variant | self-cleavage kobs at 2500 uM GlcN6P [s⁻¹]
1 | G9C C11G C71U | < 1e-05
2 | G7A C11A A12U G32A G60A C61G | < 1e-05
3 | C11A G51U U55A G62A | < 1e-05
4 | C10G G35U U46G C68A | < 1e-05
5 | G7A U30G G32A A39G | < 1e-05
6 | A12G A53G G63C | < 1e-05
7 | A14C C34G A48C | < 1e-05
8 | A15C G37U G40C | < 1e-05
9 | A12G U30A U69C | 5.49e-05 ± 1.7e-05
10 | A12C G37U A52G | < 1e-05
11 | C8U C10G G38A | < 1e-05
12 | A6C G32A G59C | < 1e-05
13 | C11G G37A G60U G63C U69C C70U | < 1e-05
14 | A12U C16U C70A | 0.000361 ± 0.00013
15 | C8U G13A A15G | < 1e-05
16 | A15U U56C C68A C71G | < 1e-05
17 | A6G G29A G60A | < 1e-05
18 | A14U G40C U46C A53G C71G | 0.00101 ± 0.00038
19 | C11A U54C C58A G66C | < 1e-05
20 | A6G A12C G37C U45A C70U | < 1e-05
21 | G9U C50A G51U C68G | 0.00198 ± 0.00067
22 | C10G A42C U45G | < 1e-05
23 | A14G A36G C58G | < 1e-05
24 | C11G A12C A48C | < 1e-05
25 | A6G C34U G40C | < 1e-05
26 | A15G C34A G37C | < 1e-05

Row | Variant | self-cleavage kobs at 2500 uM GlcN6P [s⁻¹]
27 | G13C A42U G43C G51C U57G A64G C71U | < 1e-05
28 | G7A A64C C67G U69G | < 1e-05
29 | C10U G29C G62C | < 1e-05
30 | C8A U45G U54G G66A | < 1e-05
31 | A14U A36U G41A A48G C68U | < 1e-05
32 | A15G G38U U57A G62U U69A | 0.000891 ± 0.00032
33 | C11U A14G C70G | 0.000303 ± 5e-05
34 | C8G C16G G40C | < 1e-05
35 | C11A A12G G44U C71A | < 1e-05
36 | C11G C61A G62C | < 1e-05
37 | A6U C11U U57G C58G C61A C68U C70U | 0.000618 ± 0.00019
38 | C10G C34U U46C C70U | < 1e-05
39 | G7C G21U C67G | < 1e-05
40 | C11A U45A U56A | 9.98e-05 ± 2.9e-05
41 | A12G G32U U45G G59U | < 1e-05
42 | G13C A33G G35A A48G A64G | < 1e-05
43 | G7C C16A G43C U45G C71U | < 1e-05
44 | A14G U31C G40U U55A | 0.0012 ± 0.00032
45 | A14C A36U G59U | < 1e-05
46 | A15G A33G A48C C61A | < 1e-05
47 | G9U G32A A33C | < 1e-05
48 | A12C U54G C71U | 0.00338 ± 0.0011
49 | A14C U46G C70A | 0.000308 ± 9.2e-05
50 | A15G A39U G60C | < 1e-05
51 | A12G A14C A53U A64C | < 1e-05
52 | C8A C61G A64G | < 1e-05

Row | Variant | self-cleavage kobs at 2500 uM GlcN6P [s⁻¹]
53 | A6G A14C A53G | 6.89e-05 ± 1.6e-05
54 | A12C A33G | < 1e-05
55 | A6G C34G G40A C67G C70U | < 1e-05
56 | G62U U69G | 0.000214 ± 8.3e-05
57 | A15U A39G G51A | < 1e-05
58 | A14C A33G G35C G38C G44A A48U C50U | < 1e-05
59 | C11U A14C C16A G38U G40A C50G | 6.83e-05 ± 2.4e-05
60 | A15U G35C C68G | < 1e-05
61 | G62C A64U G66U | < 1e-05
62 | A6G C16A C34A A36U G43U | < 1e-05
63 | A12C U30A G60A | < 1e-05
64 | C10A A42G U55G C67U | < 1e-05
65 | A12U A33U A42G G51C U55A C71G | < 1e-05
66 | C10A G40A U47C A48G C70U | < 1e-05
67 | C10U A14C G32C | < 1e-05
68 | A12U G13A G32C A36G C61U | < 1e-05
69 | C10U A15G U31A G32U U65G | < 1e-05
70 | A12U A36G A52C C67U C71U | < 1e-05
71 | A15G U55A G66C | 0.000727 ± 0.00013
72 | A6U G35U G59U | < 1e-05
73 | A12C G13U U30C G60A G66A | < 1e-05
74 | A12G U49A U65A | < 1e-05
75 | A6G A39U U49C | < 1e-05
76 | G7C A42G G59U | < 1e-05

Variants of: B1
Assay: self-cleavage kobs at 10000 uM GlcN6P; higher = faster cleavage; RNA array
Settings: with glucosamine-6-phosphate
Method in brief: as §1

Row | Variant | self-cleavage kobs at 10000 uM GlcN6P [s⁻¹]
77 | A14C C34G A48C | < 1e-05
78 | A14U G40C U46C A53G C71G | 0.00202 ± 0.00042
79 | C11U A14G C70G | 0.000165 ± 3.1e-05
80 | A64C U65C | < 1e-05
81 | G59C G66C | < 1e-05
82 | A12C A33G | < 1e-05
83 | A12C U30A G60A | < 1e-05
84 | C10A A42G U55G C67U | < 1e-05

Variants of: B1
Assay: self-cleavage kobs at 640 uM GlcN6P; higher = faster cleavage; RNA array
Settings: with glucosamine-6-phosphate
Method in brief: as §1

Row | Variant | self-cleavage kobs at 640 uM GlcN6P [s⁻¹]
85 | C58G A64G U65A G66U C67G U69C | 9.79e-05 ± 2.9e-05
86 | A64C U65C | < 1e-05
87 | G59C G66C | < 1e-05
88 | G62U U69G | 3.47e-05 ± 1.3e-05
89 | G62C A64U G66U | < 1e-05
